Laboratory results from patent US10359406B2, “Diagnosis and treatment of preeclampsia” (A1M Pharma AB, priority 2007, dated 2019).

B1: α1m: Recombinant human α1-microglobulin expressed in E. coli; small plasma and tissue protein, heme-binder and radical scavenger (protein, UniProt P02760 20-203, looked up)
Alpha-1-microglobulin: GPVPTPPDNIQVQENFNISRIYGKWYNLAIGSTCPWLKKIMDRMTVSTLVLGEGATEAEISMTSTRWRKGVCEETSGAYEKTDTDGKFLYHKSKWNITMESYVVHTNYDEYAIFLTKKFSRHHGPTITAKLYGRAPQLRETLLQDFRVVAQGVGIPEDSIFTMADRGECVPGEQEPEPILIPRV
modifications: Alpha-1-microglobulin

Tests used:
K562 cells [1] = assay: Scavenging of cell-bound heme from K562 cells (spectrophotometry, visual); assay type: cell-based, human; conditions: cells preloaded with 10 μM heme 30 min; protein 2 or 10 μM, 2 h
Experimental: FIG. 18. Scavenging of cell heme by α1m. Human erythroleukemic cells (K562) were cultured with either buffer or 10 μM heme for 30 minutes, washed and resuspended in fresh culture medium. A: The cells were then incubated with α1m (2 or 10 μM) for 2 hours, after which time the culture medium was saved. The cells were washed and solubilized by suspending in a buffer containing 1% NP-40. The culture medium and cellsuspension were then analysed spectrophotometrically by reading the absorbance spectra (300-700 nm). B: The various cultures were also analysed visually. Cells were incubated with either buffer or 10 μM heme for 30 min (Step 1), washed and then incubated with buffer, 10 μM α1m or 10 μM AGP for 2 hours (Step 2), washed and solubilized as described above.
To study the mechanisms of the cytoprotective effect of α1m, we performed a series of experiments attempting to analyze the interactions between the protein and cell-bound heme. […] The culture media were saved, cells washed and solubilized, and both media and solubilized cells analyzed by spectrophotometry (FIG. 18A) and visually (FIG. 18B). Heme was seen as a strong brown-coloring of the cells and the typical absorbance spectrum with a non-distinct peak around 400 nm. […]

[2] = human blood plasma glycoprotein; read-out: Kd of heme binding; cited from earlier work
K562 cells [3] = assay: Heme-induced cell lysis/death of K562 cells (propidium iodide, FACS); assay type: cell-based, human; conditions: extracellularly added α1m 2, 5 or 10 μM; 200 μM heme, 4 h
Experimental: (§1) FIG. 16. A. Cell-protective properties of α1m against heme- and ROS-induced oxidation. K562 cells were labelled with the oxidation-sensitive probe H2DCFDA, washed, and incubated with α1m (2, 5 or 10 μM), AGP (2, 5 or 10 μM) or ascorbate (10 μM) prior to the addition of 10 μM heme. The cells were incubated for 2 h and analysed with FACS. B. K562 cells were cultured with α1m (2, 5 or 10 μM) or a control protein (α1-acid glycoprotein, AGP) (10 μM) prior to the addition of 200 μM heme and cultured 4 h. The cell suspension was collected, mixed with propidium iodide and analysed with FACS.
(§2) The anti-oxidation properties of α1m are illustrated in FIGS. 16 and 17. […] A possible mechanism for these actions may be the reductase properties of α1m, reducing the oxidants, the oxidation modifications, or both.

collagen = assay: Heme-induced oxidation of collagen/LDL; carbonyl groups measured by ELISA; assay type: biochemical
Experimental: FIG. 17. Reduction of carbonyl groups on oxidized collagen by α1m. Collagen, coated to microtiter plates, was oxidized by incubation with 50 μM heme for 17 h. After washing, 0.1, 0.3 or 1 μM α1m, ovalbumin or ascorbate were added, and incubated for 2 h. Carbonyl groups were measured by ELISA. Each column represents the mean of triplicates+/−SE
as §2

K562 cells [4] = assay: Heme- and ROS-induced oxidation of K562 cells (H2DCFDA probe, FACS); assay type: cell-based, human; conditions: extracellularly added α1m 2, 5 or 10 μM; 10 μM heme, 2 h
Experimental: as §1, §2

haemoglobin = assay: Haemoglobin-α1m complex isolated from placenta tissue (anti-α1m affinity column, SDS-PAGE, Western blotting); assay type: binding, human; conditions: 43-kDa band reacting with anti-α1m and anti-Hb-A; lost with mercaptoethanol
Experimental: FIG. 20 show SDS-PAGE and Western blotting of a haemoglobin-α1m complex isolated from placenta tissue. A placenta from a healthy donor was homogenized and centrifuged at 100,000 G for 60 min. The supernatant was applied to an anti-α1m Affigel column which was rinsed and eluted with 0.1 M glycine-HCl, pH 2.3. The eluate was separated by SDS-PAGE which was either stained with Coommassie (two left lanes) or transferred to PVDF membranes and blotted with anti-α1m or anti-Hb-A.
Molecules containing α1m were purified from placenta tissue as described [Berggård et al., 1999]. Approximately 200 g of an apparently normal term human placenta, taken within 3 hours after delivery, were homogenized in 200 ml of 50 mM Tris-HCl, pH 8.0, 0.25 M sucrose, 2 mM EDTA, pepstatin, 1 mg/l, antipain, 5 mg/l, and leupeptin, 10 mg/l, using a Potter-Elvehjem apparatus with a tight-fitting teflon pestle. The homogenate was centrifuged at 10,000 G for 10 min. This pellet was washed by repeatedly suspending 1:1 in the homogenization buffer and recentrifugation at 10,000 G for 10 min. The supernatant was centrifuged at 100,000 G for 90 min. This pellet, containing the placenta membranes and membrane-bound proteins, was dissolved in 40 ml homogenization buffer also containing 0.5% (w/v) Nonidet P-40 (BDH Chemicals) and centrifuged at 20,000 G for 30 min to remove particulate material. […]

Row | Molecule | effect on cell-bound heme (K562 cells [1]) | Kd [2] [pM] | cell lysis (cell death) induced by heme (K562 cells [3]) | heme- and ROS-induced oxidation of collagen, LDL, membrane lipids and whole cells (collagen) | removal of pre-formed oxidation products (carbonyl groups) on collagen and LDL (collagen; collagen oxidized with 50 μM heme 17 h, 0.1, 0.3 or 1 μM α1m, 2 h) | oxidation of cell cytosol and cytosol protein thiol groups by heme and ROS (K562 cells [4]) | binding of haemoglobin in placenta tissue (haemoglobin)
1 | AGP: control protein (α1-acid glycoprotein), control lipocalin [reference compound] | did not have any effect | – | – | – | – | – | –
2 | Hemopexin: glycoprotein (60 kDa) found in human blood plasma which eliminates free heme by binding it strongly | – | ~1 | – | – | – | – | –
3 | B1 | almost completely removed from the cells | – | inhibits the cell lysis | inhibited | removed pre-formed oxidation products | inhibit the oxidation | haemoglobin is bound by α1m
